The results in this text go back to article PMC5422253, “Cryo-EM Structure of a Relaxase Reveals the Molecular Basis of DNA Unwinding during Bacterial Conjugation”.

For series [1], the target named is T1, TraI relaxase wild-type (Escherichia coli conjugative plasmid R1 …, UniProt Q6TDU5 1-1756). Briefly: limited trypsin proteolysis; 1:1 complex; pattern as with 22-mer; Anisotropy: 10 nM 22-merAlexa488, 50 mM Tris pH 7.2, 100 mM NaCl, 25 C, 20 min; complexes for gel filtration: protein and ssDNA mixed on ice 10 min (stocks in 50 mM Tris pH 7.2, 100 mM NaCl); EPR complexes: PBS pH 7.4, 1 mM MgCl2. The conditions noted are these: protein: recombinant; tags: N-terminal His6 with enterokinase site.

Series [2] addresses T1, TraI relaxase wild-type. Briefly: size exclusion chromatography; protein:ssDNA 1:1, 2:1, 4:1; TraI dimer forms on 49-mer; Anisotropy: 10 nM 22-merAlexa488, 50 mM Tris pH 7.2, 100 mM NaCl, 25 C, 20 min; complexes for gel filtration: protein and ssDNA mixed on ice 10 min (stocks in 50 mM Tris pH 7.2, 100 mM NaCl); EPR complexes: PBS pH 7.4, 1 mM MgCl2. The settings on record: protein: recombinant; tags: N-terminal His6 with enterokinase site; inverted repeat 5' of nic.

Series [3] has as its target T1, TraI relaxase wild-type. Briefly: limited trypsin proteolysis; open, protease-sensitive conformer; Anisotropy: 10 nM 22-merAlexa488, 50 mM Tris pH 7.2, 100 mM NaCl, 25 C, 20 min; complexes for gel filtration: protein and ssDNA mixed on ice 10 min (stocks in 50 mM Tris pH 7.2, 100 mM NaCl); EPR complexes: PBS pH 7.4, 1 mM MgCl2. The settings on record: protein: recombinant; tags: N-terminal His6 with enterokinase site; inverted repeat.

For the next series, the target named is T2, TraI1-1475 (Escherichia coli conjugative plasmid R1?, UniProt Q6TDU5 1-1475).
T2 sequence: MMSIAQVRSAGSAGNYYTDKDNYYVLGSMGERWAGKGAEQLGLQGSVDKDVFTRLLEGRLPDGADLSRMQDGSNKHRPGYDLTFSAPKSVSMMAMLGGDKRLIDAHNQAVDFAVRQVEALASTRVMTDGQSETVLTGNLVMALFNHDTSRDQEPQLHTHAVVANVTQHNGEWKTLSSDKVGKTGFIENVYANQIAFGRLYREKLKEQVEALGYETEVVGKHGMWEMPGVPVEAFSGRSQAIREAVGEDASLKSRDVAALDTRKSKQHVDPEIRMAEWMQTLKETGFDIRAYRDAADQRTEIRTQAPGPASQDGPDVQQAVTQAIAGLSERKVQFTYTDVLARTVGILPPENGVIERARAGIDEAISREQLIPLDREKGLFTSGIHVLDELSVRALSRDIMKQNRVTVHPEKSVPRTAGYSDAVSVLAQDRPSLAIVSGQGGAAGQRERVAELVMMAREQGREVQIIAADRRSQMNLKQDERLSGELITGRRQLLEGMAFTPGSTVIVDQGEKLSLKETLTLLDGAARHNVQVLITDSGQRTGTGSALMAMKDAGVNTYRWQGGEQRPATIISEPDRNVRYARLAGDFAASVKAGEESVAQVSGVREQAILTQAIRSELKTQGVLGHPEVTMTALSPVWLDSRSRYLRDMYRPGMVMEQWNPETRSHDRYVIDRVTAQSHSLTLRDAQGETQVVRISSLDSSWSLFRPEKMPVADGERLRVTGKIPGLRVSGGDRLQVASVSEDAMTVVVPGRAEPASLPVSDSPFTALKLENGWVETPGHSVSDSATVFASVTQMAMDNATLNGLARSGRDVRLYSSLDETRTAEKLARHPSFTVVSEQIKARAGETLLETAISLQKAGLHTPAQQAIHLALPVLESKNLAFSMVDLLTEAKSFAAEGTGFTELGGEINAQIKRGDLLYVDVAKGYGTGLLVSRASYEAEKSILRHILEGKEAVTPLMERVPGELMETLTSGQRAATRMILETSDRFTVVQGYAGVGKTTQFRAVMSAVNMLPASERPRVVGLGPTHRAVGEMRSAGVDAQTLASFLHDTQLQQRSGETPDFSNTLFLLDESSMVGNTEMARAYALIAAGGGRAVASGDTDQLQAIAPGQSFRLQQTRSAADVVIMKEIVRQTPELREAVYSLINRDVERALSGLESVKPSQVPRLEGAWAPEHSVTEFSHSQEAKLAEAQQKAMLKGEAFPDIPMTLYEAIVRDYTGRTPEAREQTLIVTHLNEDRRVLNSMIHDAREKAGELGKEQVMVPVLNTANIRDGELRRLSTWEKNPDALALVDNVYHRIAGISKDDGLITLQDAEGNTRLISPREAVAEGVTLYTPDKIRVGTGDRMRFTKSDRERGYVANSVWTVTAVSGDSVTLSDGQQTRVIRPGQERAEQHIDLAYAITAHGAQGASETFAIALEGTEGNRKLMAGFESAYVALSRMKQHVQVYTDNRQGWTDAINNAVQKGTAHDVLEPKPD
Briefly: size exclusion chromatography; after 365 nm photocleavage, peak V; Anisotropy: 10 nM 22-merAlexa488, 50 mM Tris pH 7.2, 100 mM NaCl, 25 C, 20 min; complexes for gel filtration: protein and ssDNA mixed on ice 10 min (stocks in 50 mM Tris pH 7.2, 100 mM NaCl); EPR complexes: PBS pH 7.4, 1 mM MgCl2. The settings on record: protein: recombinant; tags: N-terminal His6 with enterokinase site; label: 5'-Cy5; inverted repeat.

The next series concerns the target TraI-MBP (Escherichia coli conjugative plasmid R1?, UniProt Q6TDU5 1-1756). Briefly: size exclusion chromatography; after 365 nm photocleavage, peak IV; Anisotropy: 10 nM 22-merAlexa488, 50 mM Tris pH 7.2, 100 mM NaCl, 25 C, 20 min; complexes for gel filtration: protein and ssDNA mixed on ice 10 min (stocks in 50 mM Tris pH 7.2, 100 mM NaCl); EPR complexes: PBS pH 7.4, 1 mM MgCl2. The settings on record: protein: recombinant; tags: N-terminal His6 with enterokinase site; C-terminal MBP via TPGSP linker; label: 3'-6-FAM.

A further series deals with TraI A1105W/M795A (Escherichia coli conjugative plasmid R1?, UniProt Q6TDU5 1-1756, A1105W;M795A). Description: fluorescence anisotropy; higher affinity than the single mutants A1105W and M795A; Kd only in figure; Anisotropy: 10 nM 22-merAlexa488, 50 mM Tris pH 7.2, 100 mM NaCl, 25 C, 20 min; complexes for gel filtration: protein and ssDNA mixed on ice 10 min (stocks in 50 mM Tris pH 7.2, 100 mM NaCl); EPR complexes: PBS pH 7.4, 1 mM MgCl2. The settings on record: protein: recombinant; tags: N-terminal His6 with enterokinase site; label: 3'-Alexa488.

For the molecule GCTTTTGGTGGTGAGAACC (ssDNA) [19-mer], in the series with TraI relaxase wild-type [1], the binding result is “binds”.

As for GCAAAAACTTGTTTTTGCGTGGGGTGTGGTGCTTTTGGTGGTGAGAACC (ssDNA) [49-mer oriT], in the series with TraI relaxase wild-type [2], the binding result is recorded as “binds”.

On to GCAAAAACTTGTTTTTGCGTGGGGTGTGGT (ssDNA) [30-mer], for which the binding result with TraI relaxase wild-type [3] was “binds”.

Take GCAAAAACTTGTTTTTGCGTGGGGTGTGGT (ssDNA, 3' end from PC linker photocleavage) [Cy5-30-mer photocleavage product]: the binding result with TraI1-1475 is listed as “binds”. Consider GCTTTTGGTGGTGAGAACC (ssDNA, 5' end from PC linker photocleavage) [19-mer-6-FAM photocleavage product], for which, in the series with TraI-MBP, the binding result was “binds”. Turning to GGTGCTTTTGGTGGTGAGAACC (ssDNA) [22-merAlexa488], the binding result with TraI A1105W/M795A was “binds”.
